{
  "source": "paper PMC10739154",
  "about": "“Reinvestigation of Disulfide-bonded Oligomeric Forms of the Unfolded Protein Response Transducer ATF6” (Cell Structure and Function, 2019)",
  "assay_in_all_cases": "non-reducing SDS-PAGE with immunoblotting; ATF6α-TAP constructs of various lengths at the N-terminus in HCT116 DKO cells; lysates on non-reducing SDS-PAGE; blot with anti-Myc; shows disulfide-bonded forms",
  "key": {"[1]": {"molecular_target": "C618A mutant of ATF6α(Δ355)-TAP (human)"}, "[2]": {"molecular_target": "C618A mutant of ssATF6α(C)-TAP (human)"}, "[3]": {"molecular_target": "C467A mutant of ssATF6α(C)-TAP (human)"}, "[4]": {"molecular_target": "C467A mutant of ATF6α(Δ355)-TAP (human)"}, "[5]": {"molecular_target": "C618A mutant of ATF6α(Δ331)-TAP (human)"}},
  "data": [
    {"substance": "C618A mutant of ATF6α(Δ355)-TAP (domain or fragment)", "values": [
      {"measurement": "stoichiometry N", "setting": "[1]", "result": 2}
    ]},
    {"substance": "C618A mutant of ssATF6α(C)-TAP (domain or fragment)", "values": [
      {"measurement": "stoichiometry N", "setting": "[2]", "result": 2}
    ]},
    {"substance": "C467A mutant of ssATF6α(C)-TAP (domain or fragment)", "values": [
      {"measurement": "stoichiometry N", "setting": "[3]", "result": 2}
    ]},
    {"substance": "C467A mutant of ATF6α(Δ355)-TAP (domain or fragment)", "values": [
      {"measurement": "stoichiometry N", "setting": "[4]", "result": 2}
    ]},
    {"substance": "C618A mutant of ATF6α(Δ331)-TAP (domain or fragment)", "values": [
      {"measurement": "stoichiometry N", "setting": "[5]", "result": 2}
    ]}
  ]
}
